Assay results reported in paper PMC4224615.

Legend:
[1] = target: BG505 SOSIP.664 trimer, captured by anti-histidine (SPR of Fig. 2d) (HIV-1 BG505); test: SPR
[2] = target: BG505 SOSIP.664 trimer (HIV-1 BG505); test: negative-stain electron microscopy

Substance | Kd [1] [nM] | stoichiometry N (Fabs per trimer) [2]
35O22 antibody (full-length IgG) | 5.6 | 
35O22 Fab |  | 3
